In paper PMC4740771, “Nucleotide-dependent assembly of the peroxisomal receptor export complex” (Scientific Reports, 2016):
Where a chain is given by its changes, count along the chain named. Names and notes keep the numbering of the source. One block for each molecule: values may come before it.

Tests used:
[1] = biological target: Pex15p(1-315)His (GST removed by thrombin) (S. cerevisiae) (UniProt Q08215); test: SEC; Pex1/6p/Pex15p complex isolated on GSH-agarose, released by thrombin (GST left on the column), Superose 6 (small-scale and preparative) in presence of ATP; anti-His immunoblot or Coomassie, signal intensities by ImageJ
[2] = biological target: Pex15p(1-315)His (GST removed by thrombin) (S. cerevisiae) (UniProt Q08215); test: SEC; 700 kDa fractions of the Pex1/6p/Pex15p complexes pooled, kept 72 h on ice (4 °C), then size exclusion again; anti-His immunoblot, signal intensities
[3] = biological target: Pex15p(1-315)His (GST removed by thrombin) (S. cerevisiae) (UniProt Q08215); test: SEC; as a8 but 2.5 mM ATPγS added during thrombin incubation of the wild-type complex
[4] = biological target: GST-Pex15p(1-315)His (S. cerevisiae) (UniProt Q08215); test: pull-down; GST-Pex15p(1-315)His incubated with purified proteins, loaded on GSH-agarose, eluted with glutathione; 5 mM ATP; Coomassie and immunoblot, signal intensities of load and eluate
[5] = biological target: T1, Pex15p(1-315)His (GST removed by thrombin) (S. cerevisiae, UniProt Q08215 1-315); test: SEC; Pex1/6p/Pex15p complex isolated on GSH-agarose, released by thrombin (GST left on the column), Superose 6 (small-scale and preparative) in presence of ATP; anti-His immunoblot or Coomassie, signal intensities by ImageJ; details: both partners purified
T1 construct: Pex15p of S. cerevisiae, cytosolic part, residues 1 to 315; Same construct as m10 after thrombin cleavage; detected by anti-His antibodies; Printed mass 36 kDa; alone it eluted at about 100 kDa; also called Pex15pHis; source: E. coli BL21 (DE3), purified (Glutathione Agarose 4B), released from GSH-agarose by thrombin; not shown: GST, N-terminal, cleaved; His6, C-terminal, kept
T1 sequence (looked up): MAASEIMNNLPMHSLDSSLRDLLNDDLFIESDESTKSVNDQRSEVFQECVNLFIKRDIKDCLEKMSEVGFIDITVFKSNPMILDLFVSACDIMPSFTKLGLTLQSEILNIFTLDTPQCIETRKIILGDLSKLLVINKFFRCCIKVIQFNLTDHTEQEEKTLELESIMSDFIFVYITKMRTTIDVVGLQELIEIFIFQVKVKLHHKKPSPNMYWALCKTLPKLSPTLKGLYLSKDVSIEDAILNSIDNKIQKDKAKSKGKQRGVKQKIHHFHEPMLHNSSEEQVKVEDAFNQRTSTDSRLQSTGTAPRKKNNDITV

[6] = biological target: T2, HisPex1p released from HisPex1pGST by thrombin (S. cerevisiae, UniProt P24004 1-1043); test: as above; details: both partners purified
T2 construct: Pex1p, type II AAA-ATPase peroxin of yeast; The GST tag held the complex on GSH-agarose during purification and stayed on the column after thrombin cleavage; source: E. coli Tuner (DE3), co-purified with HisPex6p (NiNTA-agarose, GSH-agarose, thrombin release); not shown: His6, N-terminal, kept; GST, C-terminal, cleaved
T2 sequence (looked up): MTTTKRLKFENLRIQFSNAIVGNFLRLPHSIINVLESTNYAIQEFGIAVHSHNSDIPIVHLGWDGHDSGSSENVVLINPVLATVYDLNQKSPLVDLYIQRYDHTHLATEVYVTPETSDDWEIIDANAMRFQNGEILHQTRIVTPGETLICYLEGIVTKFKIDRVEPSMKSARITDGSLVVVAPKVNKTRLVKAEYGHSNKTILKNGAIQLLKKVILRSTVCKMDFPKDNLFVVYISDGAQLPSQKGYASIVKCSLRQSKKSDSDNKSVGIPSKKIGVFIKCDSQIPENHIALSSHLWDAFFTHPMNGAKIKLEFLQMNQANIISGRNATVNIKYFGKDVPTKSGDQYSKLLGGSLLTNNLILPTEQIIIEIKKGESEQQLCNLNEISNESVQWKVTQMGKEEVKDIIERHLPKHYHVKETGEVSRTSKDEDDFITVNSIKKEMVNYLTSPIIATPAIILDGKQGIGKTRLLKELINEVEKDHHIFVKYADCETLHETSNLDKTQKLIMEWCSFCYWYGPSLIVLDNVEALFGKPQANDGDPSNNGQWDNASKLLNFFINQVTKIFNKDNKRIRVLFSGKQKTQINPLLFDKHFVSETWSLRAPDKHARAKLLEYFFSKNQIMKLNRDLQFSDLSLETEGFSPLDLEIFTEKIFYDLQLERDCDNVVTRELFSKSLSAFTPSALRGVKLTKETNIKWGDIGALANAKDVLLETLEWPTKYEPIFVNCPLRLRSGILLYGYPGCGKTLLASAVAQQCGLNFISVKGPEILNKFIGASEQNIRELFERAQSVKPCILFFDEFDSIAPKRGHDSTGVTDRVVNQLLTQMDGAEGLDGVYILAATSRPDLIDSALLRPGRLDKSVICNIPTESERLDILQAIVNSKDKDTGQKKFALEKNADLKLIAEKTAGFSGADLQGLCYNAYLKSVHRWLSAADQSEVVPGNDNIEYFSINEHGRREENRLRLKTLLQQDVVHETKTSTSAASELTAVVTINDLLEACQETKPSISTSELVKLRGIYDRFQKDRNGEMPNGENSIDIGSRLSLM

[7] = biological target: the molecule itself; test: SEC; second gel filtration of the purified heterohexameric complexes after incubation at 37 °C

stoichiometry N (Pex15p per Pex1p of the complex) [1]: 0.9 | percent of Pex15p still bound after 72 h [2]: 40%
Molecule: Pex1/6pWB complex (wild-type Pex1p with Pex6p E832Q), P24004 1-1043; P33760 1-1030

percent of Pex15p still bound after 72 h [3]: 20% | stoichiometry N (Pex15p per Pex1p of the complex) [1]: 0.9 | stoichiometry N ([1]; scale: Pex15p per heterohexameric Pex1/6p complex): 3 | fold binding against single Pex6p [4]: 3 fold | percent of Pex15p still bound after 72 h [2]: < 10%
Molecule: Pex1/6p-complex (recombinant heterohexameric AAA-complex), P24004 1-1043; P33760 1-1030

More lines, now with the values behind:

B1: HisPex6p(E832Q) (natural protein, S. cerevisiae, UniProt P33760 1-1030, looked up)
chain: MKASLTFSLSGIYAPCSISRDIYLEYGDKKAECLYGTIRLPQYGPGCTPGKIVHCVLDDSLPFCSIVVPSKLFGFMPTQPTMDFCYFEPILDNVVPVLDSVTFLINEQLYSKLMDLPQEMQQIQFLHYKYNINSMETVVHSRDILTSGLCQILNCSPFPQGLVDFTETQLILVNDTEQKLSALKYANEDEEYALPKIGTNSALSIDLESLPCTISRDLLRPAPHINDDNSIYAFTDAETLLRLDVTSGSFITVSNMGCVRLVKLFVLLLPNGFKKRTIYAPPKIIASFPDCSVVTISKSNIGHTDIPIANQVFISRVGGWLQSQKCFQNIILTTLKKFFSESKRILCQNDLIPIAFDSSMADLNIAEENDESDDEDELGQYYKNDSLVWFFVTSAELDCFSKDNSHFIIDPNRTKLITTNITNRRPLPLSRSNLQRYYGFAETFYYDLHIFPYVRQLVNILETSFNCSQRGITLNASVLLHSTTNNVGKATMVRFASKYLGIHLLEIDCLSLTSNSRQLDSTSKIIGYIRAKCENVLPYASPAVIFLAHLDSILLDVNANQDPEAIKLQKSINFEMSKLLDDFTFKFPGTTFVGSVNNIDNVPSSFRSHMRFEILVPVPSEAQRLRIFQWYLSSHELNRDVQQKVPVSYMDNISFSSLSSYSAGLTPLDIKSIVETARMTATARFYQESKKCGWLPQSILITQEDLSKATSKARNEFSVSIGAPQIPNVTWDDIGGIDFVKGEILDTIDMPLKHPELFTSGMKKRSGILFYGPPGTGKTLMAKAIATNFSLNFFSVKGPELLNMYIGESEANVRRVFQKAREAKPCVIFFDQIDSVAPKRGNQGDSGGVMDRIVSQLLAELDGMSTDADGVFVIGATNRPDLLDEALLRPGRFDKLLYLGIPDTDTKQLNILEALTRKFVLDNDVKLIELAKLCPFNYTGADFYALCSDAMLNAMSRIARMVEKKVSQHNELTGENISTRRWFDKIATKEDTKVVVKMEDFLKAQEQLTPSVSRAELNHYEAVRANFEGA
notes: Pex6p of yeast with the Walker B mutation of the D2 domain; also called Pex6pWB; PEX6WB^E832Q; source: E. coli Tuner (DE3), co-purified with HisPex1pGST; not shown: His6, N-terminal, kept
stoichiometry N [5]: 1 Pex15p per Pex6p | stoichiometry N [6]: 0.9 Pex6p per Pex1p

B2: HisPex1p(D797N) released from its GST fusion (natural protein, S. cerevisiae, UniProt P24004 1-1043, looked up)
chain: T2 sequence (looked up) with D797N
notes: Pex1p of yeast with a mutation of the aspartate of the Walker B motif of the D2 domain; also called Pex1WB^D797N; Pex1pWB^D797N; not shown: His6, N-terminal, kept; GST, C-terminal, cleaved
stoichiometry N [7]: 3
